Measured values as given in the DeepSol protein solubility set.

Test: soluble on expression in E. coli; label from the status in PepcDB or PDB records

Row | Sequence | soluble on expression in E. coli
1 | IKKEPEKPIDREKTCPLLLRVFTTNNGRHHRMDEFSRGNVPSSELQIYTWMDATLKELTSLVKEVYPEARKKGTHFNFAIVFTDVKRPGYRVKEIGSTMSGRKGTDDSMTLQSQKFQIGDYLDIAITPPNRAPPTSGRMRPY | not soluble
2 | MSLCRRRLATWLLDGSQPPTLLLPEQEGINGIRFPIWLDENGKRVAADCPQARQEMINVWPLPLEPWLPASERRAVRLPPASTSCPPYGHDAQLPLQLTGVRDGAIIKRLPGAAEATLPLQSSGGAGERWWFLNGEPLTERGRNVTLHLTDKGDYQLLVMDDVGQIATVKFVMQEGHHHHHH | soluble
3 | MGSDKIHHHHHHVAFSAKASLATAIGRSSYWFLHTFLKGGSSLPGQIANRIDPQVLRTLGQNYDVIVVTGTNGKTLTTSLIVKVLKKKYKEVLTNPTGSNMLQGITTAFLAQPKRGHGRGIAVLEVDEANVAPVAAQLKPKAFVLTNIFRDQMDRYGEFYTTYQKILDGVTRDPEAMVIANGDAPIFSSRKLPNPVTYYGFELTANGDHKAPPNTDGVLCPVCQHILHYHAQTYANLGNYFCPHCGFKRPALTHQITEVTQMTPQSSDFMIDDQPCHIDIGGMYNIYNALAAFAVGRAFGVTPTEISQAFAYDEKVFGRQEVIQLGKKKLTLILVKNPVGLNQVLSMIETAKQPFGFAMLLNANYADGIDTSWIWDGNFEELVASQKAASYLVGGERYKDIGLRLTVAGVPEKALVSKPALDDVISTLKRSQQDQLYVLATYTAMLQLRKKLSDGGYIKAGF | not soluble
4 | MYKAVVFDFDGTVIDTEKHLFDLINTHLKIHQVAPISLEFYKQFIGGEATELHTYLEDAIGFKNKEKIYDQYYQTSVELPVNSTIIQLMQYLKKRHIPMAITTSSYKKNIYPIFKQLGLDTYIDVVVGRENVDSVQPNPEIYLKAVQELNYNPTTCLAIEDSVNGATAAMLAGLDVVVNTNIITKDQDFSTVQCVGQDMEFEDIKNSLFKE | not soluble
5 | MSLKITILAVGKLKEKYWKQAIAEYEKRLGPYTKIDIIEVPDEKAPENMSDKEIEQVKEKEGQRILAKIKPQSTVITLEIQGKMLSSEGLAQELNQRMTQGQSDFVFVIGGSNGLHKDVLQRSNYALSFSKMTFPHQMMRVVLIEQVYRAFKIMRGEAYHK | soluble
6 | MLTNQELTAKVKEISLTYFKQSFDHEAKWNQRLRTTGGRFFPKDLHLDFNPKMAELKDFEGVILHELTHYHLYRSKRGYKHRDADFKRLLSQVGGLRYAPSVIDKKIKYYYSCQNCGQLYPRQRKIDTKKYRCGKCRGKLILKTSGNLEHHHHHH | soluble
7 | MPTLPRAANSRWRSLKIGLAPDLGLDDNGSLLLDFGPRQFTVSFDETLKPFVRDVSGSRLKDLPKPNKSDDETRANDAVNRYKLLKKDARTIAAQQVARLESAMCLRRRWSLENFQLFLVEHPLVRHLTRRLIWGVYSAENQLLACFRVAEDNSSSTADDDLFTLPEGDISIGTPHVLEISPTDAAAFGQLFADYELLPPFRQLDRNSYALTEAERNASELTRWAGRKCPSGRVMGLANKGWIKGEPQDGGWIGWMIKPLGRWSLIMEIDEGFAVGMSPAELSAEQLLSKLWLWEGKAERYGWGSNSTQEAQFSVIDAITASELINDIEALFE | not soluble
8 | MGSDKIHHHHHHMFFIRVDSNQTISGGHIMRCLAIAKALIINGKDVTFLIADDNPVEVLKQNRVSYVILNSDWQDLMSDLEQTIKVLSQENDPYLLIDTYCITKEYVEGLKAYAKVGYLGSKSEYLGNLDFLINYSSYIDYNYYKNNYFNGTKLLLGISYAPLRDEFQNQEPHYREQVRNILITTGNTDNDGMVGLLLDRLRYLLKEKNIIANVIIGRMFNNKELLHVKYDDNSNVKLYENVSSMSTIMRNCDLAISANGTTIYELSAMAIPTISFAMVEEQVKSAEGLDALRVIDYCGTSYTDVNKCVKAIIDKALYYIENYDNRIRLAQNAHNLIDGNGCQKIIDELF | not soluble
9 | GMATEKYHEILKKYFLSFETGDFSQVQFSCNLEFLSPISGNTLKGTEEVIPFLKGVTTRVAEVNIMSTTVEYPRASGVWQMRTTKGTLYTLHNFFRLDEEGIVYVWPMFDPKAVMENPDALIQWLTGKDY | soluble
10 | VSLDKKLMPVPDGHPDVFDREWPLRVGDIDRAGRLRLDAACRHIQDIGQDQLREMGFEETHPLWIVRRTMVDLIRPIEFGDMLRCRRWCSGTSNRWCEMRVRVDGRKGGLIESEAFWIHVNRETEMPARIADDFLAGLHRTTSVDRLRWKGYLKPGSRDDASEIHEFPVRVTDIDLFDHMNNAVYWSVIEDYLASHAELLRGPLRVTIEHEAPVALGDKLEIISHVHPAGSTEIFGPGLVDRAVTTLTYVVGDEPKAVASLFNL | soluble
